The term Kd denotes the equilibrium constant for the complex coming apart. Higher therefore signals a looser complex.

The values that follow come from patent publication EP4559472A1.

The experiment addresses Biotinylated C4b (UniProt P0C0L4). In words: SPR, biotinylated C4b on streptavidin chip, 1:1 steady-state affinity model. (In general: Surface plasmon resonance follows binding to a sensor surface in real time, without labels.)

B1: C4BP(1-4) (protein)
chain: AGNCGPPPTLSFAAPMDITLTETRFKTGTTLKYTCLPGYVRSHSTQTLTCNSDGEWVYNTFCIYKRCRHPGELRNGQVEIKTDLSFGSQIEFSCSEGFFLIGSTTSRCEVQDRGVGWSHPLPQCEIVKCKPPPDIRNGRHSGEENFYAYGFSVTYSCDPRFSLLGHASISCTVENETIGVWRPSPPTCEKITCRKPDVSHGEMVSGFGPIYNYKDTIVFKCQKGFVLRGSSVIHCDADSKWNPSPPACEP
The molecule B1 showed a dissociation constant (Kd) of 2900 nM.
